In PMC6987093, “Polymerase independent repression of FoxO1 transcription by sequence-specific PARP1 binding to FoxO1 promoter”:

B1: FoxO1-L-B-biotin (dsDNA)
DNA 1: AATGATACGGCGACCACCGAGGATCCTCACTGTATTCTTGAATTCTCGTATGCCGTCTTCGCTTG
DNA 2: CAAGCGAAGACGGCATACGAGAATTCAAGAATACAGTGAGGATCCTCGGTGGTCGCCGTATCATT
B2: FoxO1-R-B-biotin (dsDNA)
DNA 1: AATGATACGGCGACCACCGAGGATCCTCTTGTGGTCTCTTCACGTTTACGAATTCTCGTATGCCGTCTTCTGCTTG
DNA 2: CAAGCAGAAGACGGCATACGAGAATTCGTAAACGTGAAGAGACCACAAGAGGATCCTCGGTGGTCGCCGTATCATT
B3: FoxO1-R-B (free competitor) (dsDNA)
DNA 1: B2 DNA 1
DNA 2: B2 DNA 2

Assays:
[1] = target: T1, PARP1 (UniProt P09874 1-1014); assay: pull-down (FREP); EcoRI and BamHI release; EMSA: 0, 2, 5 or 10 ug PARP1 pre-incubated 30 min with 50 ng DNA probe (Thermo EMSA kit), nondenaturing PAGE; buffer, salt, pH and temperature not given in the; conditions: label: 5' biotin
T1 sequence (P09874 whole entry): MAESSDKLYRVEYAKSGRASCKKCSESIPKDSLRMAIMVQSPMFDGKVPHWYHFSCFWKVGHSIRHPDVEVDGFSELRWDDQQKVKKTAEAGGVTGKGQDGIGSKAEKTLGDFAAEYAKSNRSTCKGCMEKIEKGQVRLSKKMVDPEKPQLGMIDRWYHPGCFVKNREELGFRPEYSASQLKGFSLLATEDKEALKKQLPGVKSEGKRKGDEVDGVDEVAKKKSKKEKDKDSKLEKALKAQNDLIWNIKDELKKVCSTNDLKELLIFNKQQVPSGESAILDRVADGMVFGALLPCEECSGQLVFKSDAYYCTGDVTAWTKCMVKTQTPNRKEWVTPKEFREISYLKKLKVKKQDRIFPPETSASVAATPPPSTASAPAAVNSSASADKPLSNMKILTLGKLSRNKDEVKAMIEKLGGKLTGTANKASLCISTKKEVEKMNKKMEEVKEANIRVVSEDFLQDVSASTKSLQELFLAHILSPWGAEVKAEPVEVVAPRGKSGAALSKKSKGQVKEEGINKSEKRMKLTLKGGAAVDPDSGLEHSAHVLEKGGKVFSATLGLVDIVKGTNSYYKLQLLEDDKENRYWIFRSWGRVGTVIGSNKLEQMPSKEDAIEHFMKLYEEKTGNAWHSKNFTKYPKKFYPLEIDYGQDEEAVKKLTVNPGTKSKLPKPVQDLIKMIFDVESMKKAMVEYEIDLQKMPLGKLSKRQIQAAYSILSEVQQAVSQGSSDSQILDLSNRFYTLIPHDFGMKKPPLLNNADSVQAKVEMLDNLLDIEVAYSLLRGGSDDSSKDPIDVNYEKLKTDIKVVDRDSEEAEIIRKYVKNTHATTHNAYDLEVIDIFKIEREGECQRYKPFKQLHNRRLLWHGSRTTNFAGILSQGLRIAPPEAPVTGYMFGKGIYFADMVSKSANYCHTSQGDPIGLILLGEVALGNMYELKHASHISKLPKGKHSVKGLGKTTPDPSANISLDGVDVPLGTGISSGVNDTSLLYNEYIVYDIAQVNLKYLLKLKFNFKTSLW

[2] = target: T1, PARP1; assay: competition; 40-fold excess over FoxO1-R-B-biotin in FREP; EMSA: 0, 2, 5 or 10 ug PARP1 pre-incubated 30 min with 50 ng DNA probe (Thermo EMSA kit), nondenaturing PAGE; buffer, salt, pH and temperature not given in the

Binder	binding result [1]	binding result [2]
B1	binds	–
B2	binds	–
B3	–	binds
